According to US8236540B2, “Isolated luciferases and the use thereof” (Bayer Intellectual Property GmbH, priority 2000, dated 2012):

B1: Lu22: coelenterazine-dependent secreted luciferase from Metridia longa, amino acid sequence SEQ ID NO: 6 (protein, listed as Metridia longa)
chain: MGVKLIFAVVCVAVAQAATIQENFEDIDLVAIGGSFASDVDANRGGHGGHPGKKMPKEVLMEMEANAKRAGCHRGCLVCLSHIKCTAQMQKFIPGRCHSYAGDKDSAQGGIAGGAIVDIPEIAGFKEMKPMEQFIAQVDLCEDCTTGCLKGLANVHCSDLLKKWLPSRCKTFASKIQSQVDTIKGLAGDR
B2: Lu164: coelenterazine-dependent secreted luciferase from Metridia longa, amino acid sequence SEQ ID NO: 4 (protein, listed as Metridia longa)
chain: MDIKVVFTLVFSALVQAKSTEFDPNIDIVGLEGKFGITNLETDLFTIWETMEVMIKADIADTDRASNFVATETDANRGKMPGKKLPLAVIMEMEANAFKAGCTRGCLICLSKIKCTAKMKVYIPGRCHDYGGDKKTGQAGIVGAIVDIPEISGFKEMAPMEQFIAQVDRCASCTTGCLKGLANVKCSELLKKWLPDRCASFADKIQKEVHNIKGMAGDR
B3: LuAL: coelenterazine-dependent secreted luciferase from Metridia longa, amino acid sequence SEQ ID NO: 2 (protein, listed as Metridia longa)
chain: MDMRVIFALVFSSLVQAKSTEFDPNINIVGLEGKFGITNLETDLFTIWETMDVIKSDITDTDRVSNFVATETDANRGKMPGKKLPLAVIMEMEANAFKAGCTRGCLICLSKIKCTAKMKVYIPGRCHDYGGDKKTGQAGIVGAIVDIPEISGFKEMAPMEQFIAQVDLCATCTTGCLKGLANVKCSELLKKWLPGRCASFADKIQKEVHNIKGMAGDR

Tests used:
[1] = system: LuAL; experiment: Coelenterazine derivatives as substrates of LuAL; type: biochemical, Metridia longa; conditions: coelenterazine derivatives 10^-4 M
[2] = system: Lu164; experiment: Coelenterazine derivatives as substrates of Lu164 (luminescence with CHO-pcDNA3-Lu164 supernatant); type: biochemical, Metridia longa; conditions: 10 μl derivative (10^-4 M) + 10 μl supernatant of CHO-pcDNA3-Lu164, 8.7 kV for 30 seconds
Procedure: In order to identify substrates for Lu164, 10 μl solutions of different coelenterazine derivatives (10^−4 M) were in each case incubated with 10 μl of supernatant from CHO-pcDNA3-Lu164 cell lines and the luminescence was measured. The coelenterazines were obtained from Molecular Probes (USA).

[3] = system: Lu22; experiment: Coelenterazine derivatives as substrates of Lu22; type: biochemical, Metridia longa; conditions: coelenterazine derivatives 10^-4 M
[4] = Luciferase activity (chemiluminescence) of bacterial lysate after adding coelenterazine; type: biochemical; conditions: 5 μl E. coli BL21(DE3) lysate (5 mg/ml), pTriplEx2 vectors, coelenterazine 10^-4 M, 9.5 kV for 30 seconds
Procedure: The bacterial expression took place in the E. coli strain BL21(DE3) as a result of transforming the bacteria with the expression plasmids pTriplEX2-Lu164, pTriplEX2-LuAL and pTriplEX2-Lu22. The transformed bacteria were incubated at 37° C. for 3 hours in LB medium and expression was induced for 4 hours by adding IPTG to a final concentration of 1 mM. The induced bacteria were harvested by centrifugation, resuspended in PBS and disrupted by ultrasonication. Coelenterazine (10^−4 M in methanol) or luciferin (Firefly Luciferin) was added to 5 μl of the lysate (5 mg/ml) and the chemiluminescence was measured.
The measurement, in RLU (relative light units), took place at 9.5 kV for 30 seconds. Values of 230 000, 320 000 and 260 000 RLU were measured in the case of Lu1 64, LuAL and Lu22, respectively. The enzymes were expressed in E. coli BL21(DE3) using the vectors pTriplEx2-Lu164, pTriplEx2-LuAL and pTriplEx2-Lu22.

[5] = Luciferase activity (chemiluminescence) after constitutive eukaryotic expression in transiently transfected CHO cells; type: cell-based; conditions: CHO cells transiently transfected with pcDNA3 vectors, 5 μl, coelenterazine 10^-4 M, 9.5 kV for 30 seconds, room temperature
Procedure: Constitutive eukaryotic expression was affected in CHO cells by transfecting the cells with the expression plasmids pcDNA3-Lu164, pcDNA3-LuAL and pcDNA3-Lu22 in transient experiments. For this, 10 000 cells in DMEM-F12 medium were plated, per well, in 96-well microtiter plates and incubated overnight at 37° C. The transfection was effected using the Fugene 6 kit (Roche) in accordance with the manufacturer's instructions. The transfected cells were incubated overnight at 37° C. in DMEM-F12 medium. The chemiluminescence in the medium (5 ul) and the cell lysate (5 μl) was measured for 30 seconds at 9.5 kV in a luminometer, at room temperature, after adding coelenterazine (10^−4 M in methanol).
Values of 680 000, 670 000 and 510 000 RLU (relative light units) were measured in the case of Lu1 64, LuAL and Lu22, respectively. The expression was effected in CHO cells using the vectors pcDNA3-Lu164, pcDNA3-LuAL and pcDNA3-Lu22.

Molecule	substrate suitability for LuAL (luminescence) [1]	substrate suitability for Lu164 (luminescence) [2]	substrate suitability for Lu22 (luminescence) [3]	chemiluminescence, RLU (relative light units) [4]	chemiluminescence, RLU (relative light units) [5]
Oc1ccc(Cc2nc3c(Cc4ccccc4)nc(-c4ccc(O)cc4)cn3c2O)cc1 [coelenterazine]	optimal substrate	optimal substrate	optimal substrate	–	–
B1	–	–	–	260 000 RLU	510 000 RLU
B2	–	–	–	230 000 RLU	680 000 RLU
B3	–	–	–	320 000 RLU	670 000 RLU
